T1: human amylin 3(a) receptor (human calcitonin receptor co-expressed with RAMP-3) (human, UniProt P30988 25-474; O60896 24-148, limits assumed)
T1 sequence (looked up) 1: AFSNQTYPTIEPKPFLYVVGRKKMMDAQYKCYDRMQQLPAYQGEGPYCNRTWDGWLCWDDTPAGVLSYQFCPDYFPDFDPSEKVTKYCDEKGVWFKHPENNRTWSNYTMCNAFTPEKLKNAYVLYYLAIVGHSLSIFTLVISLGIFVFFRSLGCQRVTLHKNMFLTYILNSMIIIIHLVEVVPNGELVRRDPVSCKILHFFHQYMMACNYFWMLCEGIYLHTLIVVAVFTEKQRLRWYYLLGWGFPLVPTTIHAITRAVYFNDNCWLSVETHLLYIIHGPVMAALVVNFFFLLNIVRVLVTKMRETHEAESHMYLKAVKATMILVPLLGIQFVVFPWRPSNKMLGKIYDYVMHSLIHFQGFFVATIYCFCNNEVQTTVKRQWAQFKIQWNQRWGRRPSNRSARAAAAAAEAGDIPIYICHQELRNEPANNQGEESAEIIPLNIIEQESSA
T1 sequence (looked up) 2: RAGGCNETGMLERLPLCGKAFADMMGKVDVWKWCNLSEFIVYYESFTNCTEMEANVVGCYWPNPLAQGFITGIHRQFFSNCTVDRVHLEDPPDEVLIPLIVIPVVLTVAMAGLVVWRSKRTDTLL

B1: N^ε1-[(4S)-4-carboxy-4-(19-carboxynonadecanoylamino)butanoyl]-[Arg17,Pro21,Pro27,Glu35]-h-amylin (peptide)
peptide: K([γGlu-C20 diacid])CNTATCATQRLANFLRHSSPNFGAIPSSTNVGSETY-NH2
modifications: disulfide 2-7; N-terminus assumed
SMILES: CC[C@H](C)[C@H](NC(=O)[C@H](C)NC(=O)CNC(=O)[C@H](Cc1ccccc1)NC(=O)[C@H](CC(N)=O)NC(=O)[C@@H]1CCCN1C(=O)[C@H](CO)NC(=O)[C@H](CO)NC(=O)[C@H](Cc1c[nH]cn1)NC(=O)[C@H](CCCNC(=N)N)NC(=O)[C@H](CC(C)C)NC(=O)[C@H](Cc1ccccc1)NC(=O)[C@H](CC(N)=O)NC(=O)[C@H](C)NC(=O)[C@H](CC(C)C)NC(=O)[C@H](CCCNC(=N)N)NC(=O)[C@H](CCC(N)=O)NC(=O)[C@@H](NC(=O)[C@H](C)NC(=O)[C@@H]1CSSC[C@H](NC(=O)[C@@H](N)CCCCNC(=O)CC[C@H](NC(=O)CCCCCCCCCCCCCCCCCCC(=O)O)C(=O)O)C(=O)N[C@@H](CC(N)=O)C(=O)N[C@@H]([C@@H](C)O)C(=O)N[C@@H](C)C(=O)N[C@@H]([C@@H](C)O)C(=O)N1)[C@@H](C)O)C(=O)N1CCC[C@H]1C(=O)N[C@@H](CO)C(=O)N[C@@H](CO)C(=O)N[C@H](C(=O)N[C@@H](CC(N)=O)C(=O)N[C@H](C(=O)NCC(=O)N[C@@H](CO)C(=O)N[C@@H](CCC(=O)O)C(=O)N[C@H](C(=O)N[C@@H](Cc1ccc(O)cc1)C(N)=O)[C@@H](C)O)C(C)C)[C@@H](C)O
notes: also called compound 27
B2: N^ε1-[(4S)-4-carboxy-4-(19-carboxynonadecanoylamino)butanoyl]-[Arg17,Pro21,Pro27,His34]-h-amylin (peptide)
peptide: K([γGlu-C20 diacid])CNTATCATQRLANFLRHSSPNFGAIPSSTNVGHNTY-NH2
modifications: disulfide 2-7; N-terminus assumed
SMILES: CC[C@H](C)[C@H](NC(=O)[C@H](C)NC(=O)CNC(=O)[C@H](Cc1ccccc1)NC(=O)[C@H](CC(N)=O)NC(=O)[C@@H]1CCCN1C(=O)[C@H](CO)NC(=O)[C@H](CO)NC(=O)[C@H](Cc1c[nH]cn1)NC(=O)[C@H](CCCNC(=N)N)NC(=O)[C@H](CC(C)C)NC(=O)[C@H](Cc1ccccc1)NC(=O)[C@H](CC(N)=O)NC(=O)[C@H](C)NC(=O)[C@H](CC(C)C)NC(=O)[C@H](CCCNC(=N)N)NC(=O)[C@H](CCC(N)=O)NC(=O)[C@@H](NC(=O)[C@H](C)NC(=O)[C@@H]1CSSC[C@H](NC(=O)[C@@H](N)CCCCNC(=O)CC[C@H](NC(=O)CCCCCCCCCCCCCCCCCCC(=O)O)C(=O)O)C(=O)N[C@@H](CC(N)=O)C(=O)N[C@@H]([C@@H](C)O)C(=O)N[C@@H](C)C(=O)N[C@@H]([C@@H](C)O)C(=O)N1)[C@@H](C)O)C(=O)N1CCC[C@H]1C(=O)N[C@@H](CO)C(=O)N[C@@H](CO)C(=O)N[C@H](C(=O)N[C@@H](CC(N)=O)C(=O)N[C@H](C(=O)NCC(=O)N[C@@H](Cc1c[nH]cn1)C(=O)N[C@@H](CC(N)=O)C(=O)N[C@H](C(=O)N[C@@H](Cc1ccc(O)cc1)C(N)=O)[C@@H](C)O)C(C)C)[C@@H](C)O
notes: also called compound 77
B3: N^ε1-[(4S)-4-carboxy-4-(19-carboxynonadecanoylamino)butanoyl]-[His14,Arg17,Pro21,Pro27,Arg34]-h-amylin (peptide)
peptide: K([γGlu-C20 diacid])CNTATCATQRLAHFLRHSSPNFGAIPSSTNVGRNTY-NH2
modifications: disulfide 2-7; N-terminus assumed
SMILES: CC[C@H](C)[C@H](NC(=O)[C@H](C)NC(=O)CNC(=O)[C@H](Cc1ccccc1)NC(=O)[C@H](CC(N)=O)NC(=O)[C@@H]1CCCN1C(=O)[C@H](CO)NC(=O)[C@H](CO)NC(=O)[C@H](Cc1c[nH]cn1)NC(=O)[C@H](CCCNC(=N)N)NC(=O)[C@H](CC(C)C)NC(=O)[C@H](Cc1ccccc1)NC(=O)[C@H](Cc1c[nH]cn1)NC(=O)[C@H](C)NC(=O)[C@H](CC(C)C)NC(=O)[C@H](CCCNC(=N)N)NC(=O)[C@H](CCC(N)=O)NC(=O)[C@@H](NC(=O)[C@H](C)NC(=O)[C@@H]1CSSC[C@H](NC(=O)[C@@H](N)CCCCNC(=O)CC[C@H](NC(=O)CCCCCCCCCCCCCCCCCCC(=O)O)C(=O)O)C(=O)N[C@@H](CC(N)=O)C(=O)N[C@@H]([C@@H](C)O)C(=O)N[C@@H](C)C(=O)N[C@@H]([C@@H](C)O)C(=O)N1)[C@@H](C)O)C(=O)N1CCC[C@H]1C(=O)N[C@@H](CO)C(=O)N[C@@H](CO)C(=O)N[C@H](C(=O)N[C@@H](CC(N)=O)C(=O)N[C@H](C(=O)NCC(=O)N[C@@H](CCCNC(=N)N)C(=O)N[C@@H](CC(N)=O)C(=O)N[C@H](C(=O)N[C@@H](Cc1ccc(O)cc1)C(N)=O)[C@@H](C)O)C(C)C)[C@@H](C)O
notes: also called compound 85
B4: N^ε1-[(4S)-4-carboxy-4-(19-carboxynonadecanoylamino)butanoyl]-[Arg17,Pro21,Pro27,His35]-h-amylin (peptide)
peptide: K([γGlu-C20 diacid])CNTATCATQRLANFLRHSSPNFGAIPSSTNVGSHTY-NH2
modifications: disulfide 2-7; N-terminus assumed
SMILES: CC[C@H](C)[C@H](NC(=O)[C@H](C)NC(=O)CNC(=O)[C@H](Cc1ccccc1)NC(=O)[C@H](CC(N)=O)NC(=O)[C@@H]1CCCN1C(=O)[C@H](CO)NC(=O)[C@H](CO)NC(=O)[C@H](Cc1c[nH]cn1)NC(=O)[C@H](CCCNC(=N)N)NC(=O)[C@H](CC(C)C)NC(=O)[C@H](Cc1ccccc1)NC(=O)[C@H](CC(N)=O)NC(=O)[C@H](C)NC(=O)[C@H](CC(C)C)NC(=O)[C@H](CCCNC(=N)N)NC(=O)[C@H](CCC(N)=O)NC(=O)[C@@H](NC(=O)[C@H](C)NC(=O)[C@@H]1CSSC[C@H](NC(=O)[C@@H](N)CCCCNC(=O)CC[C@H](NC(=O)CCCCCCCCCCCCCCCCCCC(=O)O)C(=O)O)C(=O)N[C@@H](CC(N)=O)C(=O)N[C@@H]([C@@H](C)O)C(=O)N[C@@H](C)C(=O)N[C@@H]([C@@H](C)O)C(=O)N1)[C@@H](C)O)C(=O)N1CCC[C@H]1C(=O)N[C@@H](CO)C(=O)N[C@@H](CO)C(=O)N[C@H](C(=O)N[C@@H](CC(N)=O)C(=O)N[C@H](C(=O)NCC(=O)N[C@@H](CO)C(=O)N[C@@H](Cc1c[nH]cn1)C(=O)N[C@H](C(=O)N[C@@H](Cc1ccc(O)cc1)C(N)=O)[C@@H](C)O)C(C)C)[C@@H](C)O
notes: also called compound 60
B5: N^ε1-[(4S)-4-carboxy-4-(19-carboxynonadecanoylamino)butanoyl]-[His14,Arg17,Pro21,Pro27,His35]-h-amylin (peptide)
peptide: K([γGlu-C20 diacid])CNTATCATQRLAHFLRHSSPNFGAIPSSTNVGSHTY-NH2
modifications: disulfide 2-7; N-terminus assumed
SMILES: CC[C@H](C)[C@H](NC(=O)[C@H](C)NC(=O)CNC(=O)[C@H](Cc1ccccc1)NC(=O)[C@H](CC(N)=O)NC(=O)[C@@H]1CCCN1C(=O)[C@H](CO)NC(=O)[C@H](CO)NC(=O)[C@H](Cc1c[nH]cn1)NC(=O)[C@H](CCCNC(=N)N)NC(=O)[C@H](CC(C)C)NC(=O)[C@H](Cc1ccccc1)NC(=O)[C@H](Cc1c[nH]cn1)NC(=O)[C@H](C)NC(=O)[C@H](CC(C)C)NC(=O)[C@H](CCCNC(=N)N)NC(=O)[C@H](CCC(N)=O)NC(=O)[C@@H](NC(=O)[C@H](C)NC(=O)[C@@H]1CSSC[C@H](NC(=O)[C@@H](N)CCCCNC(=O)CC[C@H](NC(=O)CCCCCCCCCCCCCCCCCCC(=O)O)C(=O)O)C(=O)N[C@@H](CC(N)=O)C(=O)N[C@@H]([C@@H](C)O)C(=O)N[C@@H](C)C(=O)N[C@@H]([C@@H](C)O)C(=O)N1)[C@@H](C)O)C(=O)N1CCC[C@H]1C(=O)N[C@@H](CO)C(=O)N[C@@H](CO)C(=O)N[C@H](C(=O)N[C@@H](CC(N)=O)C(=O)N[C@H](C(=O)NCC(=O)N[C@@H](CO)C(=O)N[C@@H](Cc1c[nH]cn1)C(=O)N[C@H](C(=O)N[C@@H](Cc1ccc(O)cc1)C(N)=O)[C@@H](C)O)C(C)C)[C@@H](C)O
notes: also called compound 66
B6: N^ε1-[(4S)-4-carboxy-4-(19-carboxynonadecanoylamino)butanoyl]-[Arg17,Pro21,Pro27,Lys35]-h-amylin (peptide)
peptide: K([γGlu-C20 diacid])CNTATCATQRLANFLRHSSPNFGAIPSSTNVGSKTY-NH2
modifications: disulfide 2-7; N-terminus assumed
SMILES: CC[C@H](C)[C@H](NC(=O)[C@H](C)NC(=O)CNC(=O)[C@H](Cc1ccccc1)NC(=O)[C@H](CC(N)=O)NC(=O)[C@@H]1CCCN1C(=O)[C@H](CO)NC(=O)[C@H](CO)NC(=O)[C@H](Cc1c[nH]cn1)NC(=O)[C@H](CCCNC(=N)N)NC(=O)[C@H](CC(C)C)NC(=O)[C@H](Cc1ccccc1)NC(=O)[C@H](CC(N)=O)NC(=O)[C@H](C)NC(=O)[C@H](CC(C)C)NC(=O)[C@H](CCCNC(=N)N)NC(=O)[C@H](CCC(N)=O)NC(=O)[C@@H](NC(=O)[C@H](C)NC(=O)[C@@H]1CSSC[C@H](NC(=O)[C@@H](N)CCCCNC(=O)CC[C@H](NC(=O)CCCCCCCCCCCCCCCCCCC(=O)O)C(=O)O)C(=O)N[C@@H](CC(N)=O)C(=O)N[C@@H]([C@@H](C)O)C(=O)N[C@@H](C)C(=O)N[C@@H]([C@@H](C)O)C(=O)N1)[C@@H](C)O)C(=O)N1CCC[C@H]1C(=O)N[C@@H](CO)C(=O)N[C@@H](CO)C(=O)N[C@H](C(=O)N[C@@H](CC(N)=O)C(=O)N[C@H](C(=O)NCC(=O)N[C@@H](CO)C(=O)N[C@@H](CCCCN)C(=O)N[C@H](C(=O)N[C@@H](Cc1ccc(O)cc1)C(N)=O)[C@@H](C)O)C(C)C)[C@@H](C)O
notes: also called compound 35

Six molecules from patent US20140087995A1 (published 2014) can be followed below.

Numbered stars: 1 amine (or outer) side, 2 acyl side, 3 side chain; on linkers, the order of the positions; unused ones are H or OH. Bridge positions count the residues as written; N and C are the ends. Side chains are listed from the residue outwards. Ends that are not written are not given here. * marks the point of attachment. C20 diacid = O=C(O)CCCCCCCCCCCCCCCCCCC(=O)*; γGlu = O=C(O)[C@H](CCC(=O)[*:2])N[*:1]

The assay deals with T1, human amylin 3(a) receptor (human …). The experiment in a line: cell-based or functional assay.
Take B1: the “Ratio hCT/hAmylin funct. (hCTR EC50 over hAmylin-R EC50)” value is 22.6 and the “hAmylin-R funct. EC50 (pM)” value worked out at 133 pM.
Taken in the same sequence, the figures for B2 were 37.3 and 145 pM.
Consider B3, for which the “Ratio hCT/hAmylin funct. (hCTR EC50 over hAmylin-R EC50)” value worked out at 26.6 and the “hAmylin-R funct. EC50 (pM)” value was determined as 146 pM.
The matching figures for B4: 15.3 and 351 pM.
Turning to B5, the “Ratio hCT/hAmylin funct. (hCTR EC50 over hAmylin-R EC50)” value came to 20.1 and the “hAmylin-R funct. EC50 (pM)” value worked out at 27 pM.
With B6, the “Ratio hCT/hAmylin funct. (hCTR EC50 over hAmylin-R EC50)” value was found to be 15 and the “hAmylin-R funct. EC50 (pM)” value was found to be 364 pM.
